B1: MATN2 (parent)
chain: FSLKTFKRKSEVERAVKRMRHLST
B2: PTPLAD1 (parent)
chain: YSFYMLTCIDMDWKVLTWLRYTLW

Variants of: B1
Experiment: protein stability index of a GFP-peptide fusion (GPS, HEK-293T) (PSI 1-6); higher = more stable
Conditions: c terminus: a fixed tail appended
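Note: lentivirally expressed fusions sorted by FACS into six bins by GFP to DsRed ratio, PSI derived from sequencing read proportions per bin multiplied by bin number.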

Row | Variant | protein stability index
1 | E11T | 2.99
2 | E11V | 2.38
3 | E11Y | 2.09
4 | V12A | 2.36
5 | V12C | 2.25
6 | V12E | 2.34
7 | V12F | 1.4
8 | V12G | 2.91
9 | V12H | 2.54
10 | V12K | 3.17
11 | V12L | 2.56
12 | V12M | 2.11
13 | V12N | 1.87
14 | V12P | 2.5
15 | V12Q | 3.15
16 | V12R | 3.19
17 | V12S | 2.98
18 | V12T | 2.38
19 | V12W | 1.24
20 | V12Y | 2.12
21 | E13A | 2
22 | E13C | 1.83
23 | E13D | 2.52
24 | E13F | 2.08
25 | E13G | 1.83

Row | Variant | protein stability index
26 | E13H | 2.37
27 | E13I | 2.29
28 | E13K | 2.69
29 | E13L | 2.28
30 | E13M | 2.25
31 | E13N | 2.83
32 | E13P | 3.15
33 | E13Q | 2.9
34 | E13R | 2.22
35 | E13S | 2.34
36 | E13T | 2.41
37 | E13V | 2.11
38 | E13W | 1.4
39 | E13Y | 2.94
40 | R14C | 1.83
41 | R14D | 2.73
42 | R14E | 2.49
43 | R14F | 2.65
44 | R14G | 2.15
45 | R14H | 2.28
46 | R14K | 3.11
47 | R14L | 1.96
48 | R14M | 3.08
49 | R14N | 2.46
50 | R14P | 2.49

Row | Variant | protein stability index
51 | R14S | 2.49
52 | R14T | 2.87
53 | R14V | 2.75
54 | R14W | 2.25
55 | A15C | 2.27
56 | A15D | 2.89
57 | A15E | 2.73
58 | A15F | 2.94
59 | A15G | 2.35
60 | A15H | 2.87
61 | A15I | 1.38
62 | A15K | 2.7
63 | A15M | 2.2
64 | A15N | 2.81
65 | A15P | 2.43
66 | A15Q | 2.58
67 | A15R | 3.91
68 | A15S | 2.33
69 | A15T | 2.78
70 | A15V | 2.27
71 | A15W | 2.17
72 | A15Y | 1.59
73 | V16A | 2.82
74 | V16C | 2.48
75 | V16D | 2.15

Row | Variant | protein stability index
76 | V16E | 2.43
77 | V16F | 3.4
78 | V16G | 2.71
79 | V16H | 2.19
80 | V16I | 2.07
81 | V16L | 1.51
82 | V16M | 2.93
83 | V16N | 2.47
84 | V16P | 2.33
85 | V16Q | 2.92
86 | V16R | 2.48
87 | V16S | 2.57
88 | V16T | 3.1
89 | V16W | 1.76
90 | V16Y | 2.1
91 | K17A | 2.26
92 | K17C | 2.35
93 | K17D | 2.92
94 | K17E | 2.38
95 | K17F | 1.75
96 | K17H | 3.01
97 | K17I | 2.04
98 | K17L | 1.92
99 | K17M | 2.53
100 | K17N | 2.5

Row | Variant | protein stability index
101 | K17P | 3.24
102 | K17Q | 2.13
103 | K17R | 1.87
104 | K17S | 2.65
105 | K17T | 2.34
106 | K17V | 2.69
107 | K17Y | 1.76
108 | R18A | 1.96
109 | R18C | 1.8
110 | R18D | 2.8
111 | R18F | 1.54
112 | R18G | 2.8
113 | R18H | 2.4
114 | R18I | 2.16
115 | R18K | 1.97
116 | R18L | 1.97
117 | R18M | 1.93
118 | R18N | 2.52
119 | R18P | 2.36
120 | R18Q | 1.93
121 | R18S | 2.21
122 | R18T | 2.26
123 | R18V | 2.34
124 | R18W | 2.04
125 | R18Y | 3.03

Row | Variant | protein stability index
126 | M19A | 3.21
127 | M19C | 2.61
128 | M19D | 2.76
129 | M19E | 3.34
130 | M19F | 2.18
131 | M19H | 2.89
132 | M19I | 4.04
133 | M19K | 3.67
134 | M19L | 2.31
135 | M19N | 2.68
136 | M19P | 2.14
137 | M19Q | 2.57
138 | M19R | 4.54
139 | M19S | 2.84
140 | M19T | 2.84
141 | M19V | 2.21
142 | M19W | 2.9
143 | M19Y | 2.5
144 | R20A | 2.14
145 | R20C | 2.4
146 | R20D | 2.54
147 | R20E | 2.54
148 | R20F | 1.9
149 | R20G | 2.38
150 | R20H | 2

Row | Variant | protein stability index
151 | R20I | 2.82
152 | R20K | 2.59
153 | R20L | 2.81
154 | R20M | 2.08
155 | R20N | 2.54
156 | R20P | 3.21
157 | R20Q | 2.22
158 | R20S | 2.42
159 | R20T | 2.57
160 | R20V | 1.6
161 | R20W | 1.24
162 | R20Y | 2.32
163 | H21A | 2.77
164 | H21C | 2.28
165 | H21D | 2.76
166 | H21E | 2.28
167 | H21F | 1.99
168 | H21G | 1.75
169 | H21I | 1.76
170 | H21K | 3.76
171 | H21L | 1.46
172 | H21N | 2.4
173 | H21P | 2.58
174 | H21Q | 1.87
175 | H21R | 2.41

Row | Variant | protein stability index
176 | H21S | 1.68
177 | H21T | 2.72
178 | H21V | 1.3
179 | H21Y | 2.84
180 | L22A | 2.81
181 | L22C | 2.79
182 | L22D | 2.96
183 | L22E | 3.18
184 | L22F | 2.1
185 | L22G | 2.79
186 | L22H | 2.59
187 | L22I | 2.36
188 | L22K | 3.09
189 | L22M | 2.57
190 | L22N | 2.47
191 | L22Q | 2.62
192 | L22R | 2.68
193 | L22S | 1.92
194 | L22T | 3.17
195 | L22V | 2.58
196 | L22Y | 1.93
197 | S23A | 1.81
198 | S23C | 1.42
199 | S23D | 3.11
200 | S23E | 2

Row | Variant | protein stability index
201 | S23G | 2.1
202 | S23I | 2.8
203 | S23K | 2.64
204 | S23N | 2.53
205 | S23P | 2.25
206 | S23R | 2.35
207 | S23T | 1.89
208 | S23V | 1.28
209 | S23W | 1.72
210 | S23Y | 2.3
211 | T24A | 2.72
212 | T24D | 2.44
213 | T24E | 2.67
214 | T24G | 3.01
215 | T24H | 2.57
216 | T24I | 2.08
217 | T24K | 3.38
218 | T24L | 2.4
219 | T24N | 3
220 | T24P | 2.35
221 | T24Q | 1.55
222 | T24S | 2.53
223 | T24V | 1.62
224 | T24W | 1.55
225 | T24Y | 2.23

Variants of: B2
Experiment: as above
Conditions: c terminus: a fixed tail appended

Row | Variant | protein stability index
226 | M11T | 1.21
227 | C8H | 2.1
228 | Y4M | 2.53
229 | L19Q | 3.25
230 | T22C | 2.07
231 | Y1W | 3.32
232 | L16P | 2.32
233 | L23C | 4.3
234 | Y1I | 3.26
235 | M11P | 2.49
236 | Y4D | 1.99
237 | T17F | 3.31
238 | W18V | 2.83
239 | Y4A | 2.33
240 | Y1Q | 3.61
241 | D12E | 2.68
242 | Y4H | 3.11
243 | D12H | 1.75
244 | Y4T | 1.86
245 | V15T | 2.91
246 | C8S | 2.62
247 | T17D | 2.45

Row | Variant | protein stability index
248 | L6N | 2.48
249 | Y4N | 3.92
250 | C8Q | 3.01
251 | S2K | 5.08
252 | W24I | 3.4
253 | S2M | 2.26
254 | D12W | 1.82
255 | S2W | 2.13
256 | M5D | 2.49
257 | W13A | 2.71
258 | Y1M | 3.57
259 | L19P | 3.35
260 | Y4L | 3.13
261 | T22F | 2.08
262 | T7A | 2.65
263 | T7N | 2.85
264 | F3Y | 3.36
265 | F3P | 2.51
266 | L19D | 4.18
267 | K14Y | 2.61
268 | R20P | 3.84
269 | L19M | 1.93

Row | Variant | protein stability index
270 | Y4W | 2.12
271 | I9G | 2.4
272 | M11C | 3.43
273 | K14L | 3.3
274 | L16W | 3.38
275 | V15Y | 3.09
276 | W18A | 2.61
277 | Y1D | 1.5
278 | T17W | 2.66
279 | M11H | 1.6
280 | L16Y | 1.59
281 | Y4V | 2.36
282 | M5P | 2.17
283 | L19E | 2.83
284 | T7V | 1.27
285 | C8L | 2.85
286 | M11Y | 3.68
287 | T22Y | 2.26
288 | D12Y | 1.95
289 | R20W | 1.06
290 | M5Y | 3.07
291 | L6H | 3.22

Row | Variant | protein stability index
292 | M5I | 3.07
293 | F3L | 1.03
294 | W18T | 3.35
295 | T7F | 3.29
296 | T17Y | 1.8
297 | W13M | 1.66
298 | D12N | 2.65
299 | M11I | 2.67
300 | F3S | 2.61
301 | W24P | 2.58
302 | R20M | 2.04
303 | L19S | 1.22
304 | Y1A | 2.82
305 | S2I | 2.41
306 | L23D | 2.6
307 | L23E | 2.74
308 | T7H | 3.17
309 | C8R | 1.42
310 | M11D | 1.56
311 | R20H | 4.19
312 | M11F | 2.15
313 | L23R | 4.16

Row | Variant | protein stability index
314 | W24M | 3.14
315 | D12F | 2.23
316 | Y4E | 1.77
317 | F3Q | 3.31
318 | L23H | 2.58
319 | T7M | 2.02
320 | L6F | 2.33
321 | T17V | 2.23
322 | C8A | 2.9
323 | I9A | 2.07
324 | W18Q | 2.11
325 | F3H | 1.93
326 | T17I | 2.68
327 | K14P | 3.03
328 | V15K | 3.92
329 | D12R | 2.18
330 | L16I | 1.75
331 | T22Q | 2.2
332 | Y21C | 4.75
333 | L16D | 3.41
334 | L6Y | 3.68
